Read-outs that look alike come from different tables or passages of the source.

For test [1], the target named is T1, hOrai1-mOrai1 ECL2 chimeric protein (human/mouse chimera, UniProt Q96D31 1-301).
T1 construct: human Orai1 with mouse ECL2; also called Ch
Nature of the test: FACS, 293EBNA. On the set-up: concentration or dose not given beside the values. On the procedure:
(§1) FACS binding analysis. Transfected 293EBNA cells transiently expressed hOrai1-mOrai1 ECL2 or mOrai1-hOrai1 ECL2 chimera. The transfected cells were harvested at 48 hours post-transfection. Cells transfected with pcDNA3.1 were used as negative controls. Cells were washed once with ice-cold 1×PBS, resuspended in ice-cold FACS buffer (1×D-PBS+2% goat serum), and 2×10⁵ cells in 100 μL were stained per antibody combination. All antibody incubation steps were performed on ice for 1 hour. […] Next, the unlabelled antibody was detected using goat F(ab′)₂ anti-mouse or anti-human IgG-phycoerythrin (IgG-PE), followed by a wash with 200 μL of ice-cold FACS buffer before flow cytometry analysis. Unstained cells and cells stained with detecting antibodies were used as negative controls. The values of relative level of fluorescence were calculated using FCS Express (De Novo Software) and mean values were calculated using log-transformed data (geometric mean). The results of the FACS analysis are shown in FIG. 15A-B, which supports the conclusion that the hOrai1 ECL2 domain is the region of hOrai1 where antibodies of the present invention bind.
(§2) Representative results of FACS analysis of binding to the mutant hOrai1-mOrai1 ECL2 chimera described above by exemplary anti-hOrai1 antibodies of the present invention are shown in FIG. 17A-D, Table 10A and Table 10B below. Table 10A (Campaign 1) and Table 10B (Campaign 2) show the gain in binding ability of exemplary monoclonal antibodies to hOrai 1-mOrai 1 ECL2 chimera mutants as determined by FACS.

The target in test [2] is T2, hOrai1-mOrai1 ECL2 (…) protein (human/mouse chimera, UniProt Q96D31 1-301).
T2 construct: also called Ch
Description: FACS, 293EBNA. On the set-up: concentration or dose not given beside the values. The method, then:
as §1, §2
T2 sequence (Q96D31 other isoform, or with tags, fused parts or gaps): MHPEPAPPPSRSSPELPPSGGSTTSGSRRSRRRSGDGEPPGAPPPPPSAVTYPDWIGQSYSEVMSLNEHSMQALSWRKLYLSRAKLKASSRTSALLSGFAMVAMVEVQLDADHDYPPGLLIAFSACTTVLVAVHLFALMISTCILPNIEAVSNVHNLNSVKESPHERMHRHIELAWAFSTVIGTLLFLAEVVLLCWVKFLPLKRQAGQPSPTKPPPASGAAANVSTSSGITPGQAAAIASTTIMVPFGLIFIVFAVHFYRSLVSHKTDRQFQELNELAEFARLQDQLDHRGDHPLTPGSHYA

Test [3] concerns the target T3, hOrai1-mOrai1 ECL2 (PASGAA) protein (human/mouse chimera, UniProt Q96D31 1-301).
T3 construct: also called Ch
Nature of the test: FACS, 293EBNA. On the set-up: concentration or dose not given beside the values. The method, then: as §1, §2
(Flow cytometry measures light scatter and fluorescence of single cells or particles in a stream.)

In test [4] the target is T4, hOrai1-mOrai1 ECL2 (AANVST) protein (human/mouse chimera, UniProt Q96D31 1-301).
T4 construct: also called Ch
T4 sequence (Q96D31 other isoform, or with tags, fused parts or gaps): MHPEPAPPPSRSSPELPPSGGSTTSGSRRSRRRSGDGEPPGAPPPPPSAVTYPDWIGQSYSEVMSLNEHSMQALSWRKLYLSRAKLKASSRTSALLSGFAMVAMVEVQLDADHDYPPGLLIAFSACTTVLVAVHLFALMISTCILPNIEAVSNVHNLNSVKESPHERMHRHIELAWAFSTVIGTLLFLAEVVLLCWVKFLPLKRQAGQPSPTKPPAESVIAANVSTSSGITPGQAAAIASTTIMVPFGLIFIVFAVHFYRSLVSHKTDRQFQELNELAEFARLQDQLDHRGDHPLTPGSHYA
Description: FACS, 293EBNA. On the set-up: concentration or dose not given beside the values. On the procedure:
as §1, §2

Test [5] deals with T5, hOrai1-mOrai1 ECL2 (GAA) protein (human/mouse chimera, UniProt Q96D31 1-301).
T5 construct: also called Ch
Description: FACS, 293EBNA. On the set-up: concentration or dose not given beside the values. The method, then:
as §1, §2

Test [6] addresses T6, hOrai1-mOrai1 ECL2 (VST) protein (human/mouse chimera, UniProt Q96D31 1-301).
T6 construct: also called Ch
Description: FACS, 293EBNA. On the set-up: concentration or dose not given beside the values. On the procedure: as §1, §2

For test [7], the target named is T7, hOrai1-mOrai1 ECL2 (SKPPA) protein (human/mouse chimera, UniProt Q96D31 1-301).
T7 construct: also called Ch
T7 sequence (Q96D31 other isoform, or with tags, fused parts or gaps): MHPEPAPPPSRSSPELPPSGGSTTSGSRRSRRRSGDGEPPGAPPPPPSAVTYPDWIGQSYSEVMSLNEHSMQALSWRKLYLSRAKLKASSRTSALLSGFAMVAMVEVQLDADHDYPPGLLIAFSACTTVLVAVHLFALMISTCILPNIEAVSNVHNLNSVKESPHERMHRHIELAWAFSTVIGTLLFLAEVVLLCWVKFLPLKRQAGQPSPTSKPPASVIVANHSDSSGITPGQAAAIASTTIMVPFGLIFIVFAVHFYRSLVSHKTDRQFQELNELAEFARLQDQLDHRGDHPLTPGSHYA
Description: FACS, 293EBNA, RFI-POC grade. On the set-up: concentration or dose not given beside the values.

Test [8] has as its target T8, mOrai1-hOrai1 ECL2 (…) protein (human/mouse chimera, UniProt Q8BWG9 1-304 (mouse entry)).
T8 construct: also called Ch
Description: flow cytometry on HEK-293 cells transfected with the chimera (loss of binding experiment).
T8 sequence (Q8BWG9 other isoform, or with tags, fused parts or gaps): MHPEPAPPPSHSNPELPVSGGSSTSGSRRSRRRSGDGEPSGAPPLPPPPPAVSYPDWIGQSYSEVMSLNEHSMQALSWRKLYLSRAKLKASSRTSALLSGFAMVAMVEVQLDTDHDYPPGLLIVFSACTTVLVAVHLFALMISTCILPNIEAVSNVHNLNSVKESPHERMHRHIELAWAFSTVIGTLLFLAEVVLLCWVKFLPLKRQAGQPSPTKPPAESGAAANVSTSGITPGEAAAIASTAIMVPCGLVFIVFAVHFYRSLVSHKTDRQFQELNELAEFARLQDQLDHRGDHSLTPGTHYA

Test [9] concerns the target T9, mOrai1-hOrai1 ECL2 (SPTKPPAE) protein (human/mouse chimera, UniProt Q8BWG9 1-304 (mouse entry)).
T9 construct: also called Ch
Described as above.

Test [10] concerns the target T10, mOrai1-hOrai1 ECL2 (KPPAE) protein (human/mouse chimera, UniProt Q8BWG9 1-304 (mouse entry)).
T10 construct: also called Ch
The test is described as above.

Test [11] concerns the target T11, mOrai1-hOrai1 ECL2 (…) protein (human/mouse chimera, UniProt Q8BWG9 1-304 (mouse entry)).
T11 construct: also called Ch
The description is as above. This is another data set of the same source.
T11 sequence (Q8BWG9 other isoform, or with tags, fused parts or gaps): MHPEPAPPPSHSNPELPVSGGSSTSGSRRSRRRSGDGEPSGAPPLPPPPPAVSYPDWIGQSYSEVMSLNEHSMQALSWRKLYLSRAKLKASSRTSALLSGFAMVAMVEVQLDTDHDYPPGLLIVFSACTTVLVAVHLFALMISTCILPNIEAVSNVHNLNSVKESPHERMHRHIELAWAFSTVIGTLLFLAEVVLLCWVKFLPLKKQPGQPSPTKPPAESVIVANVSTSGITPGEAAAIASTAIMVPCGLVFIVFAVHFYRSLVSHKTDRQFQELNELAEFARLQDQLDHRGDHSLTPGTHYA

Test [12] deals with T12, mOrai1-hOrai1 ECL2 (…) protein (human/mouse chimera, UniProt Q8BWG9 1-304 (mouse entry)).
T12 construct: also called Ch
Described as above. This is another data set of the same source.
T12 sequence (Q8BWG9 other isoform, or with tags, fused parts or gaps): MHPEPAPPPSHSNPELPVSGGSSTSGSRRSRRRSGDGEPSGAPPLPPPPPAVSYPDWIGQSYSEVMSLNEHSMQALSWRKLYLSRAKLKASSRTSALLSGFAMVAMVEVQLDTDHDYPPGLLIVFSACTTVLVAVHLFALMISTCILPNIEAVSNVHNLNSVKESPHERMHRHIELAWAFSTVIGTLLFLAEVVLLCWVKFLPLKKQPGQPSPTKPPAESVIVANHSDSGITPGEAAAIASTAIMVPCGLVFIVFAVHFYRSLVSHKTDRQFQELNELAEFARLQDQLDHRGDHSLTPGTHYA

Test [13] concerns the target T13, mOrai1-hOrai1 ECL2 (…) protein (human/mouse chimera, UniProt Q8BWG9 1-304 (mouse entry)).
T13 construct: also called Ch
The description is as above. This is another data set of the same source.

Test [14] addresses T14, mOrai1-hOrai1 ECL2 (AESVIV) protein (human/mouse chimera, UniProt Q8BWG9 1-304 (mouse entry)).
T14 construct: also called Ch
The description is as above.

For another test, the target named is human Orai1 (human, UniProt Q96D31 1-301). Description: cell-based or functional assay.
Sequence of human Orai1 (Q96D31 whole entry): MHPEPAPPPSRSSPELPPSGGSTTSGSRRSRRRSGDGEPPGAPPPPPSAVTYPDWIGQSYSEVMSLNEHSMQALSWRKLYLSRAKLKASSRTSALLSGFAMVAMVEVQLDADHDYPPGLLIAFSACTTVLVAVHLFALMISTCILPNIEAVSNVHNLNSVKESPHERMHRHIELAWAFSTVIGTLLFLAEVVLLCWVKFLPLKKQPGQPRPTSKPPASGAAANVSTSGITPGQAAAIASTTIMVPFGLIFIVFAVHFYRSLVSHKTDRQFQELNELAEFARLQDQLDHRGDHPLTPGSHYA
Test [15] has as its target T15, mOrai1-hOrai1 ECL2 chimeric protein (human/mouse chimera, UniProt Q8BWG9 1-304 (mouse entry)).
T15 construct: mouse Orai1 with human ECL2; also called Ch
Nature of the test: FACS, 293EBNA, RFI-POC grade. On the set-up: concentration or dose not given beside the values.

Test [16] concerns the target T16, hOrai1-mOrai1 ECL2 (…) protein (human/mouse chimera, UniProt Q96D31 1-301).
T16 construct: also called Ch
Description: FACS, 293EBNA, RFI-POC grade. On the set-up: concentration or dose not given beside the values.
T16 sequence (Q96D31 other isoform, or with tags, fused parts or gaps): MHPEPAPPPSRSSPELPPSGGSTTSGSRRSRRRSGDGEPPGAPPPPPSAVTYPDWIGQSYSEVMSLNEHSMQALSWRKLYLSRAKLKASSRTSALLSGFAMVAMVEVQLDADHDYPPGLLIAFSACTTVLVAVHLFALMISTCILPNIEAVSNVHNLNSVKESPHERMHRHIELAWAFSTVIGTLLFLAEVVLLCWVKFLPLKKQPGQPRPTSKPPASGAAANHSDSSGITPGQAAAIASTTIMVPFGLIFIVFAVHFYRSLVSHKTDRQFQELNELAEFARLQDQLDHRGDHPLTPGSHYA

The target of test [17] is T17, hOrai1-mOrai1 ECL2 (…) protein (human/mouse chimera, UniProt Q96D31 1-301).
T17 construct: also called Ch
Nature of the test: FACS, 293EBNA, RFI-POC grade. On the set-up: concentration or dose not given beside the values. The source holds these as a separate data set.
T17 sequence (Q96D31 other isoform, or with tags, fused parts or gaps): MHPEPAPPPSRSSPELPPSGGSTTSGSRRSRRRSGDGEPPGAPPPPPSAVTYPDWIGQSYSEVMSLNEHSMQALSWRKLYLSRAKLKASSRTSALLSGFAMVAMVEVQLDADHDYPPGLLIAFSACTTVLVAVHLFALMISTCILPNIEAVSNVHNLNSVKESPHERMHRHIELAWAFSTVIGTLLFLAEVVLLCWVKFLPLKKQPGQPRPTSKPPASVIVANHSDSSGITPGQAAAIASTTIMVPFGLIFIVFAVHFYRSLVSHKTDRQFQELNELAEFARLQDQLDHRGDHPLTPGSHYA

For test [18], the target named is T18, hOrai1-mOrai1 ECL2 (…) protein (human/mouse chimera, UniProt Q96D31 1-301).
T18 construct: also called Ch
Nature of the test: FACS, 293EBNA, RFI-POC grade. On the set-up: concentration or dose not given beside the values. This is another data set of the same source.
T18 sequence (Q96D31 other isoform, or with tags, fused parts or gaps): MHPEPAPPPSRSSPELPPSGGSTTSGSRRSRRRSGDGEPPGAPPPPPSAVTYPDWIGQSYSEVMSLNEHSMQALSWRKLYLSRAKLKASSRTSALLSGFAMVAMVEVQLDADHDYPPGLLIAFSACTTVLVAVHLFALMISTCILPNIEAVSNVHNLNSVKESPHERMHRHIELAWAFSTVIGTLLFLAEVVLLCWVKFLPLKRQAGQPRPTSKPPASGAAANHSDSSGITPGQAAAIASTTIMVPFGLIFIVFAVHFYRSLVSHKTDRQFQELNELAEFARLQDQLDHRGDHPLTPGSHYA

Test [19] has as its target T19, hOrai1-mOrai1 ECL2 (RPTSKPPA) protein (human/mouse chimera, UniProt Q96D31 1-301).
T19 construct: also called Ch
Description: FACS, 293EBNA, RFI-POC grade. On the set-up: concentration or dose not given beside the values.

Test [20] deals with T15, mOrai1-hOrai1 ECL2 chimeric protein. Nature of the test: FACS, 293EBNA, RFI-POC grade. On the set-up: concentration or dose not given beside the values. The source holds these as a separate data set.
Test [21] addresses T16, hOrai1-mOrai1 ECL2 (…) protein. Description: FACS, 293EBNA, RFI-POC grade. On the set-up: concentration or dose not given beside the values. This is another data set of the same source.
In test [22] the target is T17, hOrai1-mOrai1 ECL2 (…) protein. Description: FACS, 293EBNA, RFI-POC grade. On the set-up: concentration or dose not given beside the values. This is another data set of the same source.
Test [23] concerns the target T18, hOrai1-mOrai1 ECL2 (…) protein. Nature of the test: FACS, 293EBNA, RFI-POC grade. On the set-up: concentration or dose not given beside the values. This is another data set of the same source.
The target in test [24] is T19, hOrai1-mOrai1 ECL2 (RPTSKPPA) protein. Description: FACS, 293EBNA, RFI-POC grade. On the set-up: concentration or dose not given beside the values. The source holds these as a separate data set.
Test [25] concerns the target T7, hOrai1-mOrai1 ECL2 (SKPPA) protein. Description: FACS, 293EBNA, RFI-POC grade. On the set-up: concentration or dose not given beside the values. The source holds these as a separate data set.

T3 sequence (Q96D31 other isoform, or with tags, fused parts or gaps): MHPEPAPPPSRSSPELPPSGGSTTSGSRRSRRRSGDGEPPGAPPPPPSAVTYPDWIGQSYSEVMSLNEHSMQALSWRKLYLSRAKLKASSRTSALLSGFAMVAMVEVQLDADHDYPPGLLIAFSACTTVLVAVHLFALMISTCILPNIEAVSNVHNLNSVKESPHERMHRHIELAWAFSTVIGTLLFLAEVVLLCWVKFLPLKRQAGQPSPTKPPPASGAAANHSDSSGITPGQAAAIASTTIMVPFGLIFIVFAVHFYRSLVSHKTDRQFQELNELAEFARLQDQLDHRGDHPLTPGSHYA
T10 sequence (Q8BWG9 other isoform, or with tags, fused parts or gaps): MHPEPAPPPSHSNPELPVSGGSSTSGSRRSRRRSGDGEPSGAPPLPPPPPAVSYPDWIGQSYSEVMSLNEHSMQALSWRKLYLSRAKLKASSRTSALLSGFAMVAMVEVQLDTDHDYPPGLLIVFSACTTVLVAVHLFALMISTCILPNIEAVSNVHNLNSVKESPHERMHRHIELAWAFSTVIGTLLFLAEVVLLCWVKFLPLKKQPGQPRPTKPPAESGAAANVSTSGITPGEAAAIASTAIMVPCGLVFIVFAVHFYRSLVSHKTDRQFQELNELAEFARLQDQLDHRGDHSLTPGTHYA
T15 sequence (Q8BWG9 other isoform, or with tags, fused parts or gaps mutant): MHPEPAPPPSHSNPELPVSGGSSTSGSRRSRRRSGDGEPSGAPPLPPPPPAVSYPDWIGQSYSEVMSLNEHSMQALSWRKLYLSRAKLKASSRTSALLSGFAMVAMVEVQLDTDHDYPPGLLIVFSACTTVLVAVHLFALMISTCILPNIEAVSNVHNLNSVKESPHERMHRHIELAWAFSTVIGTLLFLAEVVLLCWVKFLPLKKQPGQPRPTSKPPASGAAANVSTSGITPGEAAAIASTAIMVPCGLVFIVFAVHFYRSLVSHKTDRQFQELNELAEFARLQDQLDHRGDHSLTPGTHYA
T9 sequence (Q8BWG9 other isoform, or with tags, fused parts or gaps): as the sequence (Q8BWG9 other isoform, or with tags, fused parts or gaps mutant) above, with R212S, S215K, K216P, P218A, A219E counted along it
T6 sequence (Q96D31 other isoform, or with tags, fused parts or gaps): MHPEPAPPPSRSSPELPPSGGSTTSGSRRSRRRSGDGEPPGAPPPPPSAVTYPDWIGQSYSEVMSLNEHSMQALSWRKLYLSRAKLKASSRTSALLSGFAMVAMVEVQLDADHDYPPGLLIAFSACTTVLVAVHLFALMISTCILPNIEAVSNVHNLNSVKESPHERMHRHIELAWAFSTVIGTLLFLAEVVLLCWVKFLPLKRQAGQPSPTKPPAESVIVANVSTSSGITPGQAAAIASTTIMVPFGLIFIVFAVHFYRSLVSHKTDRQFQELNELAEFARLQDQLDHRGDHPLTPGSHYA
T1 sequence (Q96D31 other isoform, or with tags, fused parts or gaps mutant): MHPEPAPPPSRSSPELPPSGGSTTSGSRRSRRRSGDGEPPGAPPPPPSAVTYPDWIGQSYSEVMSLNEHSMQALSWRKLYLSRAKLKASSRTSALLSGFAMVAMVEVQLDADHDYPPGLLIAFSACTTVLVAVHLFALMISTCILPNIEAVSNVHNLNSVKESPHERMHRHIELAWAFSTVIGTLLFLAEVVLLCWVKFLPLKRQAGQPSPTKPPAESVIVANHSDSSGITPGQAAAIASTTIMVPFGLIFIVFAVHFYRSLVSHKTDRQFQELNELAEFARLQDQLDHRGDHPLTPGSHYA

B1: mAb 2B4.1 (antibody, human IgG2, lambda, V domains shown)
VH: QVQLVQSGAEVKKPGASVKVSCKASGYTFTDYYMHWVRQAPGQGLEWMGWINPNSGGTNYVQKFQDRVTMTRDTSITTAYMELTRLRSDDTAVYYCAREEGDYGMDVWGQGTTVTVSS
VL: QSVLTQPPSVSGAPGQRVTISCTGSNSNIGTGYDVHWYQKLPGTAPRLLIYSHFNRPSGVPDRFSGSTSGTSASLAITGLQAEDEADYYCQSYDSSLSGSVFGGGTKLTVLG
For B1, the “percent of control (POC) of FACS Geo Mean” value (“percent of control” for short) in [1], in test [2], in [3], in [4], in test [5] and in test [6] was less than 1% in each case. The “percent of control” value in [7] lay within 1 to 5%. In addition, the binding result in [8], in test [9], in test [10], in [11], in test [12] and in test [13] was “no binding” throughout. Also, the binding result in test [14] is given as “no binding”.

B2: mAb 2D2.1 (antibody, human IgG2, lambda, V domains shown)
VH: QVQLQQWGAGLLKPSETLSLTCAVYGGSFSGYYWSWIRQPPGKGLEWIGEIDHSGRINYNPALKSRLTISVDTSKNQFSLKLSSVTAADTAVYYCARAGSGGYEDWFDPWGQGTLVTVSS
VL: QSVLTQPPSVSGAPGQRVTISCTGSSSNIGAGYNVHWYQQFPRTDPKLLIYVYNIRPSGVPDRFSGSRSGTSASLAITGLQTEDEADYYCQSYDSSLSGVVFGGGTKLTVLG
notes: fully human IgG2 lambda, Campaign 1; also called mAb 2D.1
B2: the “percent of control” value in test [1], in test [2], in test [3], in test [4], in [5] and in test [6] was less than 1% in each case. Moreover, the “percent of control” value in test [15] lay within 40 to 100%; in test [16], 40 to 100%; in [17], 40 to 100%; in [18], 40 to 100%; in test [19], 40 to 100%; in [7], 5 to 40%. Moreover, the “percent of control” value in test [20] lay in the range of 40 to 100%; in test [21] it was 40 to 100%; in [22], 40 to 100%; in [23], 40 to 100%; in test [24], 40 to 100%; in test [25], 5 to 40%. The “IC50 IFN-g, whole blood Donor A, recombinant mAb” value in the test with human Orai1 was 1.18 nM. Also, in the test with human Orai1, the “IC50 IFN-g, whole blood Donor B, recombinant mAb” value (“IC50 IFN-g, whole blood Donor B” for short) is 1.1 nM. Also, in the test with human Orai1, the “IC50 IL-2, whole blood Donor A, recombinant mAb” value worked out at 0.49 nM. The “IC50 IL-2, whole blood Donor B, recombinant mAb” value (from here on “IC50 IL-2, whole blood Donor B”) with human Orai1 was found to be 0.21 nM. For the same molecule, the binding result in test [8], in test [9], in test [10], in [11] and in test [12] was “no binding” each time.

B3: mAb 2B7.1 (antibody, human IgG2, V domains shown)
VH: QVQLQQWGAGLLKPSETLSLTCAVYGGSFSGYYWSWIRQPPGKGLEWIGEIDHSGSTNYNPALKSRLTISVDTSKNQFSLKLSSVTAADTAVYYCARAGSGGYEDWFDPWGQGTLVTVSS
VL: QSVLTQPPSVSGAPGQRVTISCTGSSSNIGTGYNVHWYQQFPRTDPKLLIYVYNIRPSGVPDRFSGSRSGTSASLAITGLQTEDEADYYCQSYDSSLSGVVFGGGTKLTVLG
notes: fully human, Campaign 1
For B3, the “percent of control” value in test [1], in [2], in test [3], in [4], in [5] and in test [6] was less than 1% throughout. Moreover, the “percent of control” value in test [15] fell in the range of 40 to 100%; in [16] it was 40 to 100%; in [17], 40 to 100%; in [18] it was 40 to 100%; in test [19], 40 to 100%; in [7], 5 to 40%. Further, in the test with human Orai1, the “IC50 IFN-g, whole blood Donor A, recombinant mAb” value turned out to be 5.27 nM. In addition, the “IC50 IFN-g, whole blood Donor B” value with human Orai1 stood at 3.93 nM. Moreover, the “IC50 IL-2, whole blood Donor A, recombinant mAb” value with human Orai1 turned out to be 2.06 nM. In addition, the “IC50 IL-2, whole blood Donor B” value with human Orai1 was found to be 0.9 nM. Further, the binding result in test [8], in test [9], in [10], in [11] and in test [12] was “no binding” throughout.

B4: mAb 2C1.1 (antibody, human IgG2, lambda, V domains shown)
VH: QVQLQQWGAGLLKPSETLSLTCAVYGGSFSGYYWSWIRQPPGKGLEWIGEIDHSGSTNYNPALKSRLTISVDTSKNQFSLKLSSVTAADTAVYYCARAGSGGYEDWFDPWGQGTLVTVSS
VL: QSVLTQPPSVSGAPGQRVTISCTGSSSNIGAGYNVHWYQQFPRTDPKLLIYVYNIRPSGVPDRFSGSRSGTSASLAITGLQTEDEADYYCQSYDSSLSGVVFGGGTKLTVLG
notes: fully human IgG2 lambda, Campaign 1; tested hybridoma-purified and recombinant; also called anti-hOrai1 mAb 2C1.1
With B4, the “percent of control” value in [1], in [2], in test [3], in [4], in test [5] and in [6] was less than 1% each time. The “percent of control” value fell in the range of 40 to 100% in [15]; 40 to 100% in test [16]; 40 to 100% in test [17]; 40 to 100% in [18]; 40 to 100% in [19]; 5 to 40% in test [7]. For the same molecule, the “IC50 IFN-g, whole blood Donor A, recombinant mAb” value in the test with human Orai1 was determined as 1.62 nM. In addition, in the test with human Orai1, the “IC50 IFN-g, whole blood Donor B” value worked out at 1.61 nM. In the test with human Orai1, the “IC50 IL-2, whole blood Donor A, recombinant mAb” value was 0.57 nM. Moreover, the “IC50 IL-2, whole blood Donor B” value in the test with human Orai1 amounted to 0.34 nM. Besides, the binding result in test [8], in test [9], in [10], in [11] and in test [12] was “no binding” in each case.

Values taken from patent US20120231006A1 (Amgen, published 2012).
